Values of other authors as cited in article PMC8322311.
Like-named read-outs stand apart in the source and are kept apart here.

How the values were obtained:
[1] = molecular target: SHH (Homo sapiens) (UniProt Q15465)
[2] = molecular target: SHH (Homo sapiens) (UniProt Q15465); remark: listed apart in the source

## HHIP (from UniProt Q96QV1)
[1]
  Kd: 6 nM

## Glypican-3 (from UniProt P51654)
[2]
  Kd: 32 nM
